Test results reported in patent US9371374 (AbbVie / Abbott, dated 2016).
Where a chain is given by its changes, count along the chain named.

B1: HCV 208A-352 (antibody, V domains shown)
VH: QGQMQQSGAELVKPGASVKLSCKTSGFTFSSSFISWLKQKPGQSLEWIAWIYAGTGNTNYNQKFTDKAQLTVDTSSSTAYMQFSSLTTEDSAIYYCAISGTGFTYWGQGTLVTVSA
VL: DVLMAQTPLSLPVTLGDQASISCRSSQSLVHSNGNTYLEWFLQKPGQSPKLLIYNVSNRFSGVPDRFSGSGSGTDFTLKISRVEAEDLGVYYCFQGSHVPLTFGSGTKLEIKR
B2: HCV 208B-1024 (antibody, V domains shown)
VH: EVQLVESGGDLVKPGGSLKLSCAASGFTFSNYGMSWVRQTPDKRLEWVATISSGGSYSYYPDSVKGRFTISRDNAKNILYLQMSSLKSEDTAMYYCASLYYGYGDYWGQGTAFTVSS
VL: B1 VL with A5T, T14S, L29I, F41Y, P45L, N55R, L101W, S105G
B3: HCV 208A-983 (antibody, V domains shown)
VH: B1 VH with F33Y, I34F, N59I, S75A, Y80F, F83L, T88I
VL: B1 VL with A5T, T14N, V30L, L101F, E110A
B4: HCV 208B-281 (antibody, V domains shown)
VH: B1 VH with M4L, F33Y, K40R, N57G, T104I
VL: B1 VL with A5T, T14S, S32N, N55K, L101F
B5: HCV 208B-560 (antibody, V domains shown)
VH: EVQLQQSGPELEKPGASVKISCKTSGYTFTEYAMHWVKQSHGMSLEWIGGINPSNGNAIYNQIFKDKATLTVDRSSSTAYMGLRSLTFGDSGVYFCVRRQLDFFDYWGQGASLTVSS
VL: DIVVTQSPASLAVSLGQRATISCRASQSVSTSRYSYLHWYQQKPGQPPKLLIKYASNLESGVPARFSGSGSGTDFTLNIHPVGEEDTATYYCQHSWEFPFTFGSGTKLEIKR
B6: HCV 208A-830 (antibody, V domains shown)
VH: EVRLQQPGPEVEKPGASVKISCKTSGYTFTEYAIHWVKQSHGESLEWIGGINPSNGDPIYNQIFKDKATLTVDRSSNTAYMGLRSLTVGDSGVYFCVRRQLDYFDFWGQGASLTVSS
VL: B5 VL with V4L, A25S, T87P
B7: HCV 208A-920 (antibody, V domains shown)
VH: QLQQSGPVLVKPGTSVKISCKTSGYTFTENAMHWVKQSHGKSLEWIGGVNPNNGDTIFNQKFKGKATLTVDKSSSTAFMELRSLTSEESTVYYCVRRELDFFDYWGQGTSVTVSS
VL: B5 VL with V4L, L37M, G83A, T89A
B8: HCV 208A-1064 (antibody, V domains shown)
VH: EVQLQQSGPELVKPGASVKISCKTSGYTFTEYAMHWMKQSHGKSLEWIGGINPTNGDTIYNQKFKDKAKLTVDRSSSTAYMELRSLTSDDSALFYCARRELDYFASWGQGTTLTVSS
VL: B5 VL with V4L, A12I, R18T, Y34F, Y40I, A64V, G83E, Y91F, E109K
B9: HCV 208B-251 (antibody, V domains shown)
VH: QLQQSGPVLVKPGASVKISCKTSGYTFTENAMHWVKQSHGKSLEWIGGVNPNNGDTIYNQKFKGKATLTVDKSSSTAFMELRSLTSEESPVYFCVRRELDFFDYWGQGTSVTVSS
VL: B5 VL with V4L, Q17K, R18K, L37M, Q46H, G83A, T89A
B10: HCV 208A-334 (antibody, V domains shown)
VH: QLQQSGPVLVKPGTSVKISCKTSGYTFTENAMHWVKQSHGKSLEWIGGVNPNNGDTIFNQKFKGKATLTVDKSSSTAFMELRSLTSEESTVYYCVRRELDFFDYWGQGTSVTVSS
VL: B5 VL with V4L, L37M, G83A, T89A, E97G
B11: HCV 208B-1094 (antibody, V domains shown)
VH: B8 VH with K63R
VL: DIVLTQSPASLIVSLGQTATISCRASQSLSTSRFSYVHWIQQKPGQPPKLLIKYASNLESGVPVRFSGSGSGTDFTLNIHPVEEEDTATYFCQHSWEFPFTFGSGTKLKIKR
B12: HCV 208A-222 (antibody, V domains shown)
VH: B5 VH with K19R, M43K, S54N, F103Y
VL: B5 VL
B13: HCV 208B-556 (antibody, V domains shown)
VH: B9 VH with K17M, Y58F, L81F, P90T, F93Y
VL: B5 VL with V4L, L37M, G83A
B14: HCV 208A-605 (antibody, V domains shown)
VH: B5 VH with M34I
VL: B5 VL
B15: HCV 208A-133 (antibody, V domains shown)
VH: B9 VH with K11G, K17M, K36E, Y58F, L81F, P90T, F93Y
VL: B5 VL with V4L, L37M, G83A
B16: HCV 208A-159 (antibody, V domains shown)
VH: B9 VH with V8A, L9Q, K17M, Y58F, G64D, T67A, P90T, F93Y
VL: B5 VL with V4L, L37V, S56A, G83A, T87A, T89A
B17: HCV 208A-638 (antibody, V domains shown)
VH: QGQLQQPGAEFVKPGASLKLSCRASGYTFTSYWIHWVKQRPGQGLEWIGEVDPSDSYINQNEKFRGKATLTVDKSSSTAYMQLGSLTSEDSAVYYCARHYYGVLDSWGQGTALTVSS
VL: QIVLTQSPTIMSASLGERVTMTCTASSSVSSSYLHWFQQKPGSSPKLWIYSTSNLASGVPPRFSGSGSGTSYSLSISSVEAEDVATYYCLQFHRSPWTFGGGAKLEIKR
B18: HCV 208B-174 (antibody, V domains shown)
VH: EVKLEESGGGLVQPGGSMKLSCVASGFSFSSYWMSWVRQSPEKGLDWVAEIRLRSDNYATHYAESVKGRFTISRDDSISRLYLQMNTLRAEDTGIYYCTWMTYWGQGTLVTVSA
VL: QNVLTQSPAIMSASPGEKVTMSCSASSSVTYMFWYQLKPESSPRLLIYDTSNLASGVPVRFSGSGSGTSYSLTISRMEAEDAATYYCQEWSSYPLTFGAGTKLDLKR
B19: HCV 208B-589 (antibody, V domains shown)
VH: QVQLQQSGAGLAKPGASVKMSCKASGYTFTANKMHWAKQRPGQGLEWIGYIDPSSGYTEYNHKIQDKATLTADTSSSTAYMQLSSLTFEDSAVYYCTNFAYWGQGTLVTVSA
VL: DIVMTQTPLTLSVTIGQPASISCKSSQSLLFTNGKTYLNWFLQRPGQSPKRLIYLLSKLDSGVPDRFSGSGSGTDFTLKISRVEAEDLGVYYCLQSTYFPLTFGAGTKLELKR
B20: HCV 208A-877 (antibody, V domains shown)
VH: QLQQSGPELVKPGASVKISCKTSGYTFTENAMHWVKQSRGKSLEWIGGVNPNNGDTVYTQKFKGKATLTVAKSSSTAYMELRTMTCEESTVYYCASREPDFFDYWGQGSSVTVSS
VL: QIVLTQSPAIMSVSPGEKVSMTCSASSSVTYMHWYQQKSGTSPKRWIYDTSELASGVPARFSGSGSGTTYSLTISSMEAEDAATYYCQQWSNKPLTFGAGTKLELKR

Each binder was assayed against HCV Core 134-171-TT peptide (ALRZ-9 peptide) (HCV-1) (assay: SPR, captured mAb;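 note: Anti-HCV Core mAbs from hybridoma supernatants held on a rabbit anti-mouse IgG CM5 surface, peptide flowed over 3 min then 4 min dissociation, duplicate concentrations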).
With B1 the Kd was 0.52 nM, the koff was 5.4e-05 s⁻¹ and the kon was 100000 M⁻¹ s⁻¹.
B2 gave a Kd of 15 nM, a koff of 0.014 s⁻¹ and a kon of 1e+06 M⁻¹ s⁻¹.
With B3 the Kd was 0.46 nM, the koff was 4.6e-05 s⁻¹ and the kon was 97000 M⁻¹ s⁻¹.
B4 gave a Kd of 96 nM, a koff of 0.00025 s⁻¹ and a kon of 2200 M⁻¹ s⁻¹.
In the case of B5, the Kd is reported as 0.23 nM, the koff is reported as 0.00026 s⁻¹ and the kon is reported as 1.1e+06 M⁻¹ s⁻¹.
Work on B6 yielded a Kd of 0.16 nM, a koff of 0.00054 s⁻¹ and a kon of 3.4e+06 M⁻¹ s⁻¹.
Binder B7 has a Kd of 0.39 nM, a koff of 0.00056 s⁻¹ and a kon of 1.5e+06 M⁻¹ s⁻¹.
Work on B8 yielded a Kd of 0.21 nM, a koff of 0.00034 s⁻¹ and a kon of 1.6e+06 M⁻¹ s⁻¹.
B9 was tested, and the Kd was 0.58 nM, the koff was 0.00065 s⁻¹ and the kon was 1.1e+06 M⁻¹ s⁻¹.
With B10 the Kd was 0.34 nM, the koff was 0.00057 s⁻¹ and the kon was 1.7e+06 M⁻¹ s⁻¹.
For B11, the Kd was 0.16 nM, the koff was 0.00025 s⁻¹ and the kon was 1.5e+06 M⁻¹ s⁻¹.
B12 was tested, and the Kd was 0.31 nM, the koff was 0.00035 s⁻¹ and the kon was 1.1e+06 M⁻¹ s⁻¹.
With B13 the Kd was 0.4 nM, the koff was 0.0006 s⁻¹ and the kon was 1.5e+06 M⁻¹ s⁻¹.
B14 was tested, and the Kd was 0.43 nM, the koff was 0.00037 s⁻¹ and the kon was 870000 M⁻¹ s⁻¹.
Binder B15 has a Kd of 0.41 nM, a koff of 0.0005 s⁻¹ and a kon of 1.2e+06 M⁻¹ s⁻¹.
Work on B16 yielded a Kd of 0.45 nM, a koff of 0.00065 s⁻¹ and a kon of 1.4e+06 M⁻¹ s⁻¹.
Work on B17 yielded a Kd of 0.2 nM, a koff of 0.00053 s⁻¹ and a kon of 2.7e+06 M⁻¹ s⁻¹.
In the case of B18, the Kd is reported as 0.25 nM, the koff is reported as 0.00018 s⁻¹ and the kon is reported as 760000 M⁻¹ s⁻¹.
B19 showed a Kd of 0.63 nM, a koff of 0.00061 s⁻¹ and a kon of 960000 M⁻¹ s⁻¹.
B20 gave a Kd of 2.2 nM, a koff of 0.0024 s⁻¹ and a kon of 1.1e+06 M⁻¹ s⁻¹.
